Results taken from the DeepSol protein solubility set.

Assay: soluble on expression in E. coli; label from the status in PepcDB or PDB records

Q: With “VPKLIDHDRRQQEIAEAVWRVIQREGIGAVSVRDVAAEAGISSGSLRHVFASKTELLAYSMRLVATRVRERAQAHASITDPWQRALAVLDEVLPLDDRRRCEMEVNLALVAESPAHPLLKDIALDAQRQLRGACAAILTGLAQWGLIAPDIDVDAEAMRLHALVDGAAMHVLLGDTDTPDTARRMIAEHLRTLL” as the sequence, how does the “soluble on expression in E. coli” value read?
A: not soluble

Q: For “MAHHHHHHMGNGASVGENRHSQLFQQGYKSLQEGRYTYAEIYYDQAIERHEGHSFWTRLDDLIEWERRDKAGQKGTDAKQKTAYRDGGQEEAAFPEVRKDSLKEENEVNVEMGEAAGVGGSGKIEIPLDSRLADVVDYLVLRADIAESYMAEGRYEEATPHMDFLSSHTRVMLKFLQIARMTKAEESANSSNPLEGSTADAGADNAGGGNRRAHQGFMMVSDVERDSILDCFEQFLRMHWVSAMANSVFIVSERFKKGKSEKKHKKELDTAVVACAKIQEELYNVAKRRARSLSNSVVLSFLEGIMEELDAESSTTSITNERMGTANGKTRTNTLFEEQNNRSTGNRSANEIDMLTDRDECPIKVHLQMVYDRRSLCREVPAPQQAPTLRYITWIDDEIRRVVPGTNYNLEIQCGMVDEKRKKQLQKRSLKFAAQRNCNYNDRVLLGKSFDEENALLLFPVFLIQADVQFELGAATKGINALDIVDKLSTQLYGVGSLERQSIMRSVMESRKRGGSLFMMFED”, which “soluble on expression in E. coli” value is on record?
A: soluble

Q: For “GPGSMASNITAERYEQLKKERTFHKFTYRGLEIDPLLALSEEEFKALVHARARRNMNRHADRRPPVLLKRLREAKKHVKVGEKPKAVKTHLRDVVITPEMVGSVVAIYNGHQFNAVEIKGEMIGHYLGEFSMSYRPVLHGRPGVGATHSSRFIPIK”, which “soluble on expression in E. coli” value is on record?
A: soluble

Q: Which “soluble on expression in E. coli” value does the source give for “MSSFVLDFQEIEKTQLSLVGGKGLNLGALSNMQGIQVPEGFCVTTAGYEKAIEQNEELQALLQQLTKLKREERVRIGEISKKIRENIMAVQIPSDVVEAVAHYLSRFGNEHAYAVRSSATAEDLPYASFAGQQDTYLNIIGENAILQHVRKCWASLFTDRAVMYRMQNGFEHNQVSICVVVQKMVFPQASGILFTADPITSNRKVLSIDASFGLGEALVSGLVSADNYKVKEGEIIDKMIATKKLAIYALKEGGTETKQNDPVQQKIQTLSDQQILQLVQIGRQIEAYFGCPQDIEWCLVDHTFYIVQSRPITTLYPIPEENDEGNHVYISVGHQQMMTDAMKPLGLSFFLLTTNAPMRKAGGRLFVDATQQLVLPASRDYLINTLGKSDPLVRDALTTIIERDDFITLLPDEEKEKSASKSKPPVSSQPEIENDPAIVTELIRNSEASLEELKQNMQLKSGVDVFDFILEDIQQLKKVLFNPQSIAVIMAGMNASTWINEKMEQWLGEKNAADMLSQSVQNNITSEMGLALMDVADAIRPYPEVITYLQHVEDDSFLDELVQYKGGEKARDTIVAFLNKYGMRCSGEIDITKTRWSEKPTTIIPMILNNIRDFEAGASKQKFEKGLQEALNKEEELLDRLQHLPKGKQKVEETKRMIRNIRNFIGYREYPKYGMINRYFIYKQALLKEAEQLVQSGVICEVDDIYYLTFEELHEVVRTNKLDYELIQKQKNDYKLYEKLTPPRVMTSDGEIITGKYKRENLPADAIVGLPVSSGVVEGRARVILNMEEANLEEGDILVTAFTDPGWTPLFVSIKGLVTEVGGLMTHGAVIAREYGLPAVVGVENATKRIKDGQRIRVHGTEGYIEML” here?
A: not soluble

Q: For “MGSDKIHHHHHHMKFEVASNVLLQHLQLIARVIASRSTLPILESVLFELEGDQLRLTAADMANRMSTELTVNNVGGENGSFAVPERILLEPLKELPDQPISFEINMETKAAEIAYSNGHYSFVVQDVSTYPVAASLSPEAIVSIVPAEALLSGLSATLFATSQDERRPIMTGVYLDFFEDKLVFVGSDGQILVKQEDANVQSRRRSAFCLPRKACLLLRNVLPRLEGDVTLTYDSNYLHIELGNYTLRARLLEGRYPNYNSVIPTSNPFSVKVDRAQLLSGAKRVSIFSNPATSMLRMEFTPAGIRLSANDIDFSVAAEEHVPAECPADINMRIGFKSDVFQTILQGMPSEEVIMTLADQTRAGLILPAENAPGISLCNLLLPMKLIGE”, which “soluble on expression in E. coli” value is on record?
A: not soluble

Q: Which “soluble on expression in E. coli” value does the source give for “MLKIGVLVSGRGSNLQAIIDAIESGKVNASIELVISDNPKAYAIERCKKHNVECKVIQRKEFPSKKEFEERMALELKKKGVELVVLAGFMRILSHNFLKYFPNKVINIHPSLIPAFQGLHAQKQAVEFGVKFSGCTVHIVDESVDAGPVIVQAVVPVLPEDDENTLADRILKWEHKILPQTVQWFAQDRIIIDGRKVIVKDATYGTLPVNPALEIF” here?
A: soluble

Q: Which “soluble on expression in E. coli” value does the source give for “MAHHHHHHMGTLEAQTQGPGSMKQPTAVIFDWYNTLIDTSINIDRTTFYQVLDQMGYKNIDLDSIPNSTIPKYLITLLGKRWKEATILYENSLEKSQKSDNFMLNDGAIELLDTLKENNITMAIVSNKNGERLRSEIHHKNLTHYFDSIIGSGDTGTIKPSPEPVLAALTNINIEPSKEVFFIGDSISDIQSAIEAGCLPIKYGSTNIIKDILSFKNFYDIRNFICQLINI” here?
A: soluble

Q: With “MGSDKIHHHHHHVQDKNFDKLAHKFAKNIYGTPKGEIRAAVLWRDLSSALAPFGDKKLRILDAGGGFGFFSQKLARLGHEVVLCDISQEMLIQAQAHIDASTEPLNIELIHAPIQALSVEQNGVFDLILCHAVVEWLTDAQRTMEGLLTMLKPNGLFSLMFYNKEAMRFHALISGNFDYVAADLKVKKKVRLTPTHPLYIQEVKQWFMDWEMTLISQSGVRVIHDYLKKSQAADFDYQKLLQMELEYSQHEPYISLGRYVHFLGISRGT” as the sequence, how does the “soluble on expression in E. coli” value read?
A: not soluble

Q: For “MGSDKIHHHHHHMEPDFYHGFYPPTPLKTYPEEIFYIGKCTENMQPVGLDIGTNYTKITADGKNVLLYPSIVAYGEEKDWSLKGETKSVYIGDEALSIVQSMENVEVLRPLHEGRVLHTSYLELAKYGLNKLKVKDGLIATGLPVKSSKKEREELKRELESELNSKVLIFPEPVGTMAYMGMETGVCVDIGFGTTDVLVIADMEYLKGDTMLMGVDKLYENLEVAVRNRIGISITPEEMTKLLTTEGYEIGRIRGGKKVSVSREEIMPEYEGYVKTWVERIASRVKLVLEGLSTTLVENFAITGGGSMLPGVYEMFKESFSDIGDVKRPDEPIKANSIGYYILAKSLVVEAETEQSGDAEILDADDKKKGRKGKK”, which “soluble on expression in E. coli” value is on record?
A: not soluble

Q: With “MIENHLYSLVTVVKYKLLPCLLAIFLTGCDRTEVTLSFTPEMASFSNEFDFDPLRGPVKDFTQTLMDEQGEVTKRVSGTLSEEGCFDSLELLDLENNTVVALVLDANYYRDAETLEKRVRLQGKCQLAELPSAGVSWETDDNGFVIKASSKQMQMEYRYDDQGYPLGKTTKSNDKTLSVSATPSTDPIKKLDYTAVTLLNNQRVGNVKQSCEYDSHANPVDCQLIIVDEGVKPAVERVYTIKNTIDYY” as the sequence, how does the “soluble on expression in E. coli” value read?
A: not soluble

Q: Which “soluble on expression in E. coli” value does the source give for “MGSDKIHHHHHHMLNMDFSRRVVIRTHEQHWVPSPAAGVERKPLAREEAERGHATSVVRYKPGSSFSTHEHPLGEEILVLEGVFSDETGHYPAGTYIRNPPGSSHAPFSEEGCTLLVKLHQFDPRDTATVRIDTNSGHWLPGIGGLQVMPLHEFEHERVALVKWPPNEAFQPHRHFGGEEIFVLSGEFRDEHGRYPAGSWIRSPHMSQHHPFVEQETVIWVKTGHLPVNHSPET” here?
A: not soluble

Q: For “IKGSTDMDHSGFIQKFIALYGGLNKHTLHHLSEIYSYDVQFIDAVHEINGIDELTDYFTHLYTNLIECKFTIHHVIEDINLTQGEATLFWTMNYKHPKIGKGKSISVEGVSHIKFNDKVFYHRDFLDMGQMVYEHLPLIGPMVKFIKKRVQA”, which “soluble on expression in E. coli” value is on record?
A: soluble

Q: With “MSLTYYDDIRKVQDLHLPWEILTDINILIVGASGLIGRALVDTLMQLPDKTFHLYAGVRDLVYAQSCFMRYKDDESFTLIQCDVTALIPFDIDFHYIIHAASYAGPAAFHNDPVGVMKANILGVDNLFSYGEQHNLRRLLYVSSGEVYGEGNGIPFREEDSGSLDWASLRACYPAAKRTAETLCIAYAAQFQIETVIARPCHIYGPFYTSKDDRAYAQFIRNVLAGENIILRSSGLQQRSWCYVVDCVFALLYVLLKGKTKNAYNIADVRSNVSIREFAEMIALKSEREVIFDLPDNTGKNKPIISQAIFNTEKINKIGWFPQWKLEEGVSHTLNTLISVDGTYEGHITITTDPNSSSVDKLAAALEHHHHHH” as the sequence, how does the “soluble on expression in E. coli” value read?
A: soluble

Q: Which “soluble on expression in E. coli” value does the source give for “MIPFVWGICMPTLRNPQYRAFARRKLYRRQDGKCFYCHRDLTTKKTGELALTIEHRKAKMKGGTDDLKNLVAACWHCNHHRGEQMNATKQRKEAKALSRQRRMLARDCRSKADSQADGKAHEQLASKVEGNGANRTPSVHTARSEGLGLEHHHHHH” here?
A: soluble

Q: Which “soluble on expression in E. coli” value does the source give for “MDFRANLQRQVKPKTVSEEERKVHSPQQVDFRSVLAKKGTSKTPVPEKVPPPKPATPDFRSVLGGKKKLPAENGSSSAETLNAKAVESSKPLSNAQPSGPLKPVGNAKPAETLKPMGNAKPAETLKPMGNAKPDENLKSASKELKKDVKNDVNCKRGHAGTTDNEKRSESQGTAPAFKQKLQDVHVAEGKKLLLQCQVSSDPPATIIWTLNGKTLKTTKFIILSQEGSLCSVSIEKALPEDRGLYKCVAKNDAGQAECSCQVTVDDAPASENTKAPEMKSRRPKSSLPPVLGTESDATVKKKPAPKTPPKAAMPPQIIQFPEDQKVRAGESVELFGKVTGTQPITCTWMKFRKQIQESEHMKVENSENGSKLTILAARQEHCGCYTLLVENKLGSRQAQVNLTVVDKPDPPAGTPCASDIRSSSLTLSWYGSSYDGGSAVQSYSIEIWDSANKTWKELATCRSTSFNVQDLLPDHEYKFRVRAINVYGTSEPSQESELTTVGEKPEEPKDEVEVSDDDEKEPEVDYRTVTINTEQKVSDFYDIEERLGSGKFGQVFRLVEKKTRKVWAGKFFKAYSAKEKENIRQEISIMNCLHHPKLVQCVDAFEEKANIVMVLEIVSGGELFERIIDEDFELTERECIKYMRQISEGVEYIHKQGIVHLDLKPENIMCVNKTGTRIKLIDFGLARRLENAGSLKVLFGTPEFVAPEVINYEPIGYATDMWSIGVICYILVSGLSPFMGDNDNETLANVTSATWDFDDEAFDEISDDAKDFISNLLKKDMKNRLDCTQCLQHPWLMKDTKNMEAKKLSKDRMKKYMARRKWQKTGNAVRAIGRLSSMAMISGLSGRKSSTGSPTSPLNAEKLESEEDVSQAFLEAVAEEKPHVKPYFSKTIRDLEVVEGSAARFDCKIEGYPDPEVVWFKDDQSIRESRHFQIDYDEDGNCSLIISDVCGDDDAKYTCKAVNSLGEATCTAELIVETMEEGEGEGEEEEE” here?
A: soluble

Q: Which “soluble on expression in E. coli” value does the source give for “MSLAPFVAKDIRVDGVQGDLEQQIRASLPVRAGQRVTDNDVANIVRSLFVSGRFDDVKAHQEGDVLVVSVVAKSIISDVKIKGNSVIPTEALKQNLDANGFKVGDVLIREKLNEFAKSVKEHYASVGRYNATVEPIVNTLPNNRAEILIQINEDDKAKLASLTFKGNESVSSSTLQEQMELQPDSWWKLWGNKFEGAQFEKDLQSIRDYYLNNGYAKAQITKTDVQLNDEKTKVNVTIDVNEGLQYDLRSARIIGNLGGMSAELEPLLSALHLNDTFRRSDIADVENAIKAKLGERGYGSATVNSVPDFDDANKTLAITLVVDAGRRLTVRQLRFEGNTVSADSTLRQEMRQQEGTWYNSQLVELGKIRLDRTGFFETVENRIDPINGSNDEVDVVYKVKERNTGSINFGIGYGTESGISYQASVKQDNFLGTGAAVSIAGTKNDYGTSVNLGYTEPYFTKDGVSLGGNVFFENYDNSKSDTSSNYKRTTYGSNVTLGFPVNENNSYYVGLGHTYNKISNFALEYNRNLYIQSMKFKGNGIKTNDFDFSFGWNYNSLNRGYFPTKGVKASLGGRVTIPGSDNKYYKLSADVQGFYPLDRDHLWVVSAKASAGYANGFGNKRLPFYQTYTAGGIGSLRGFAYGSIGPNAIYAEYGNGSGTGTFKKISSDVIGGNAIATASAELIVPTPFVSDKSQNTVRTSLFVDAASVWNTKWKSDKNGLESDVLKRLPDYGKSSRIRASTGVGFQWQSPIGPLVFSYAKPIKKYENDDVEQFQFSIGGSFEGHHHHHH” here?
A: not soluble
